Each block holds one binder with its values, some of them ahead of it.
Columns and labels:
TIGIT [1] = target: T1, TIGIT (UniProt Q495A1 22-244); assay: flow cytometry, cells expressing TIGIT
T1 construct: whole, on cells; cell-expressed counter structure
T1 sequence (looked up): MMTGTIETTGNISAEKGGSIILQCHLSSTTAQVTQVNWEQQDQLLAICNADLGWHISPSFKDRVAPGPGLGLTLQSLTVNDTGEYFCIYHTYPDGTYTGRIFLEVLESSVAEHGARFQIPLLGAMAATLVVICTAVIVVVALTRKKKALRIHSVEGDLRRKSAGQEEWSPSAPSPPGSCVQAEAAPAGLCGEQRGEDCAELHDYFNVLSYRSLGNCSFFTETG

CD28 = target: T2, CD28 (Homo sapiens (Human), UniProt P10747 19-220); assay: flow cytometry, HEK293 cells transfected with CD28
T2 construct: Expressed on transfected HEK293 cells

CD226 = target: T3, CD226 (Homo sapiens (Human), UniProt Q15762 19-336); assay: flow cytometry, transfected cells
T3 construct: on transfected cells
T3 sequence: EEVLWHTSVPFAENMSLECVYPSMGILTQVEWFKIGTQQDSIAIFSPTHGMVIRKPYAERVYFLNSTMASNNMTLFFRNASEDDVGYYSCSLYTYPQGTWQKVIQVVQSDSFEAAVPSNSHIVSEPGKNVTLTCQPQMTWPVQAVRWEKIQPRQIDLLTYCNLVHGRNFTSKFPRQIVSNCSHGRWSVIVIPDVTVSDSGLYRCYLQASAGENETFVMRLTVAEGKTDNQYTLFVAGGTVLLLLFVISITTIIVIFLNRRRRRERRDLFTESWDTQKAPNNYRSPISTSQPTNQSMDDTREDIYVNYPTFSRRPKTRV

TIGIT [2] = target: T4, TIGIT (Homo sapiens (Human), UniProt Q495A1 22-244); assay: flow cytometry, transfected cells
T4 construct: on transfected cells
T4 sequence: T1 sequence (looked up)

CD96 = target: T5, CD96 (UniProt P40200 22-585, limits assumed); assay: flow cytometry, transfected cells
T5 construct: whole, on cells; on transfected cells
T5 sequence (looked up): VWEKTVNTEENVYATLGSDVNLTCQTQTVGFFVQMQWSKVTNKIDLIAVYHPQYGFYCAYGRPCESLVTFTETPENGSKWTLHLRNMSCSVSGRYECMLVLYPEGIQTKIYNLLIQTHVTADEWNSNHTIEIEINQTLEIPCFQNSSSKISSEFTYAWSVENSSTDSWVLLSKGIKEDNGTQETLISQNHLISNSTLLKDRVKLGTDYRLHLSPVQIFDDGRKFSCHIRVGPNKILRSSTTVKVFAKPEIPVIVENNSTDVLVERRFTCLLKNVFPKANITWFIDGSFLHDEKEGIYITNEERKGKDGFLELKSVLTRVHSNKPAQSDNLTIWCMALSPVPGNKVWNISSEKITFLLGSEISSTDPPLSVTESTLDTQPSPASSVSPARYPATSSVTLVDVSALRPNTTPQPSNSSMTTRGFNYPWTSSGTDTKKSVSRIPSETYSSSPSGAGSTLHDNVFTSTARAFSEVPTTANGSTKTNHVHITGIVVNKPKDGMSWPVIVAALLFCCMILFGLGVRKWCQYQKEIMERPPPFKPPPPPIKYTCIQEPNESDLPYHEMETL

MFI at 25 nM (TIGIT [1]): 3000
B1: variant CD155 IgV-Fc V9L, V11M, P18S, N35S, S54G, Q62K, L79P, L104M, T107M, V115M (Fc fusion, not shown: a dimerising Fc or GST)
chain: WPPPGTGDLVMQAPTQVSGFLGDSVTLPCYLQVPSMEVTHVSQLTWARHGESGGMAVFHQTKGPSYSESKRLEFVAARPGAELRNASLRMFGLRVEDEGNYTCMFVMFPQGSRSMDIWLRVL

MFI at 66.6 nM (CD28): 3070
B2: WT CD80 ECD Fc (Fc fusion, not shown: a dimerising Fc or GST)
chain: VIHVTKEVKEVATLSCGHNVSVEELAQTRIYWQKEKKMVLTMMSGDMNIWPEYKNRTIFDITNNLSIVILALRPSDEGTYECVVLKYEKDAFKREHLAEVTLSVKADFPTPSISDFEIPTSNIRRIICSTSGGFPEPHLSWLENGEELNAINTTVSQDPETELYAVSSKLDFNMTTNHSFMCLIKYGHLRVNQTFNWNTTKQEHFPDN

MFI parental ratio (CD226): 1 ratio
MFI parental ratio (TIGIT [2]): 1.1 ratio
MFI parental ratio (CD96): 0.8 ratio
B3: variant CD155 IgV-Fc P18T, F91S, R94H (Fc fusion, not shown: a dimerising Fc or GST)
chain: WPPPGTGDVVVQAPTQVTGFLGDSVTLPCYLQVPNMEVTHVSQLTWARHGESGSMAVFHQTQGPSYSESKRLEFVAARLGAELRNASLRMSGLHVEDEGNYTCLFVTFPQGSRSVDIWLRVL

From patent US20210130437A1 (ALPINE IMMUNE SCIENCES, published 2021)
